Results on 16 sequences are retold here after the nanobody polyreactivity screen of Harvey et al. (2022).

This series in a line: yeast display, Sf9 membrane polyspecificity reagent, FACS + sequencing; frameworks hold sequencing errors. An outline of the steps: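 Nanobodies from a synthetic yeast display library (Saccharomyces cerevisiae BJ5465), induced 36–48 hours with galactose, were stained 1 hour at 4 °C with 10% biotinylated, detergent-solubilized Sf9 membrane reagent, enriched on streptavidin microbeads, then FACS-sorted. Anti-HA (expression) and streptavidin (reagent binding) fluorescence set low and high (top ~1%) gates. Polyreactivity labels come from the gate of origin. Genes were colony-PCR amplified, MiSeq 2 × 250 sequenced and filtered by CDR length.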
In the case of “QVQLVESGGGLVQAGGSLRLSCAASGRIIGLYTMGWYRQAPGKERELVAAINIRGTRTYYADSVKGRFTISRDNAKNTVYLQMTSLKPEDTAVYYCNAYPKSWELDYWGLGTQVTVSS”, the “polyreactivity (PSR sort gate)” value was “high polyreactivity”.
As for “QVQLVESGGGLVQAGGSLRLSCAASGSTFQYNAMGWYRQAPGKEREFVAAISRTGTSTYYADSVKGRFTISRDNAKNTVYLLMNSLKPEDTAVYYCAAKSLRSGMGYWGQGTQVTVTS”, the entry is “high polyreactivity”; as for “QVQLVESRGGLVQAGGSLRLSCAASGSIFLSYAMGWYRQAPGKERELVADISRSGGSTYYADSVKGRFTISRDNAKNTVYLQMNSLKPEDTAVYYCAVYIAVYEGDYWGQGSQVTVSS”, “low polyreactivity”; as for “QVQLVESGGGLVQAGGRLRLSCAASGSIFTVYSMGWYRQAPGKERELVASIRFSSGRTYYADSVKGRFTISRDNAKNTVYLQMNSLKPEDTAVYYCAAETVSWYRYYYWGQGTQVTVSS”, “high polyreactivity”.
Next, “QVQLVESGGGLVQAGGSLRLSCAASGRTFSLNAMGWYRQAPGKEREFVAAISSTGGSTYYADSVKGRFTISRDNAKNTVYLQMNSLKPEDTAVYYCAKRSVYRTALGRYSVAYDYWGQGTQVTVSS”: “high polyreactivity”; “QVQLVESGGGLVQAGGSLRLSCAASGSISGYYVMGWYRQAPGKERELVAAITWRGGSTYYADSVKGSFTISRDNAKNTVYLQMNSLKPEDTAVYYCNKVPGRRSTFEYWGQGTQVTVSS”: “high polyreactivity”.
As for “QVQLVESGGGLVHAGGSLRLSCAASGRTFTRNAMGWYRQAPGKERELVAAISISGGRTYYADSVKGRFTISRDNAKNTVSLQMNSLKPEDTAVYYCANVTTSKYDYDYWGQGTQVTVSS”, the entry is “high polyreactivity”; as for “QVQLVESGVGLVQAGGSLRLSCAASGRPFVAYAMGWYRQAPGTERELVARISSGGGTYADSVKGRFTISRDNAKNTVYLQMNSLKPEDTAVYYCATSLQRQFDYWGQGTQVTVSS”, “low polyreactivity”; as for “QVQLVESGGGLVQAGGSLRLSCAASGSIFGYYAMGWYRQAPGKERELVAAISSGGNTNYADSVNGRFTISRDNAKITVYLQMTSLKPEDTAVYDCATRARYKRIRYDYWGQGTKVTVSS”, “high polyreactivity”.
Turning to “QVQLVESGGGLVQAGGSLRLSCAASGSTFFSYVMGWYRQAPGKERELVAAISNGGSTYYADSVKGRFTISRDNAKNSVYLQMNSLKPEDTAVYYCAAGGRRKRGNYWGQGTQVTVSS”, the “polyreactivity (PSR sort gate)” value is reported as “high polyreactivity”.
Next, “QVQLVESGGGLVQAGGSLRLSCAASGSIFSKNAIGWYRQAPGKERELVATISRSGGSTYYADSVKGRFTISRDNAKNTVYLQMNSLKPDDSAVYYCNRDTRYYWKRYGYWGQGTQVTVSS”: “high polyreactivity”; “QVQLVESGGGLFQAGVSLTLSFAASGSIFDINAMGWYRQEPWKETDLVAAIRSGDRTHYADSVKGRFTISRDNAMNTVYLQMNSLIPEDTAVYYCAADRFIYLNRELDYWGQGTQVTVSS”: “low polyreactivity”; “LVQLVESGGGLVQAGGSLRLSCAASGSTFSVNALGWYRQAPGNERELVAAITYSGGSTYYADSVKGRFTISRDTAKNTVYLQMNSLKPEDTAVYYCATRVWFYKSRGGYRERDYWGQGTQVTVSS”: “high polyreactivity”.
Next, “QVQLQERGGGLVQAGGSLLSCAASGTISYYREMGWYRQAPGKERELVAGIGVGTITYYADSVKGRFTISRDNAKNTVYLQMNRLKPEDTAVYFCAAHIDGNDSHAYWGQGTQVTVSS”: “low polyreactivity”; “QVQLVESGGGLVQAGGSLRLSCAASGRIIFRNAMGWYRQAPGKERELVAAISTSGGSTYYADSVKGRFTISRDNAKNTVYLQMNSLKPEDTAVYYWSKQFNSSPRRYYWGQGTQVTVSS”: “high polyreactivity”.
As for “QVQLVESGGGLVQAGGSLRLSCAASGFTFYIYAMGWYRPAPRNERELLAAITGSGGRTYYADSVKGRFTISRDYAKNTVYLQMNRLKPEETAVYYSNVLLQRVYGTEPSFDYWGQGTQVTVSS”, the entry is “high polyreactivity”.
